Results on five molecules are retold here after article PMC9275217, “Improvement of Fusel Alcohol Production by Engineering of the Yeast Branched-Chain Amino Acid Aminotransaminase” (Applied and Environmental Microbiology, 2022).

Substitutions are numbered along the chain they refer to. Numbers in names are those of the source.

The target of series [1] is T1, Bat1ΔN16^WT (Saccharomyces cerevisiae, UniProt P38891, G333S).
T1 construct: gene BAT1; first 16 residues (mitochondrial-targeting signal) removed; N-terminal His-tag (pET53-dest, tag not reported cut); E. coli BL21(DE3); dimer
T1 sequence (P38891 17-393 G333S): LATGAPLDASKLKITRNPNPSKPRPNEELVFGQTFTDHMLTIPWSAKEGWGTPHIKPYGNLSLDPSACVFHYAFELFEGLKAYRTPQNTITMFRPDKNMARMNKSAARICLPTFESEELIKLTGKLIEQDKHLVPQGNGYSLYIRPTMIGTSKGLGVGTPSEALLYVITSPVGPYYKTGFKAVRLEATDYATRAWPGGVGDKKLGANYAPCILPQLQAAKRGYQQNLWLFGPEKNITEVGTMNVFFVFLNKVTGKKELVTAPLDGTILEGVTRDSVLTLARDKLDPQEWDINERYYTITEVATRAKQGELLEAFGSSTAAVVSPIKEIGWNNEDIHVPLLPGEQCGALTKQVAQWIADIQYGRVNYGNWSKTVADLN
The series can be described thus: NADH absorbance […] nm, coupled to glutamate dehydrogenase. The conditions noted are these: reverse reaction; 2 mM KG, 5 mM NAD+, 50 μM PLP, 200 mM potassium phosphate pH 8.5, 30°C; apparent. In kind it is biochemical.

Series [2] concerns the target T2, Bat1ΔN16^WT (Saccharomyces cerevisiae, UniProt P38891).
T2 construct: gene BAT1; first 16 residues (mitochondrial-targeting signal) removed; N-terminal His-tag (pET53-dest, tag not reported cut); E. coli BL21(DE3); dimer
T2 sequence (P38891 17-393): T1 sequence (P38891 17-393 G333S) with S317G
The series is described as above. In kind it is biochemical. The conditions noted are these: reverse reaction; 2 mM KG, 5 mM NAD+, 50 μM PLP, 200 mM potassium phosphate pH 8.5, 30°C; apparent.

Substrate in series [3]: CC[C@H](C)[C@H](N)C(=O)O
Kind of series: purified protein. The conditions noted are these: reverse reaction, 2 mM KG, 5 mM NAD+, 50 μM PLP, 200 mM potassium phosphate pH 8.5, 30°C, apparent.

Substrate in series [4]: CC(C)[C@H](N)C(=O)O
The series can be described thus: purified protein. The conditions noted are these: reverse reaction, 2 mM KG, 5 mM NAD+, 50 μM PLP, 200 mM potassium phosphate pH 8.5, 30°C, apparent.

Substrate in series [5]: CC(C)C[C@H](N)C(=O)O
Kind of series: purified protein. The conditions noted are these: reverse reaction, 2 mM KG, 5 mM NAD+, 50 μM PLP, 200 mM potassium phosphate pH 8.5, 30°C, apparent.

Substrate in series [6]: CC[C@H](C)C(=O)C(=O)O
The series can be described thus: purified protein. In kind it is biochemical, Saccharomyces cerevisiae. The conditions noted are these: forward reaction, 100 mM Glu, 50 μM PLP, 100 mM NH4Cl, 0.25 mM NADH, 200 mM potassium phosphate pH 8.0, 30°C, apparent.

Substrate in series [7]: CC(C)CC(=O)C(=O)O
Kind of series: purified protein. In kind it is biochemical, Saccharomyces cerevisiae. The conditions noted are these: forward reaction, 100 mM Glu, 50 μM PLP, 100 mM NH4Cl, 0.25 mM NADH, 200 mM potassium phosphate pH 8.0, 30°C, apparent.

Substrate in series [8]: CC(C)C(=O)C(=O)O
The series can be described thus: purified protein. In kind it is biochemical, Saccharomyces cerevisiae. The conditions noted are these: forward reaction, 100 mM Glu, 50 μM PLP, 100 mM NH4Cl, 0.25 mM NADH, 200 mM potassium phosphate pH 8.0, 30°C, apparent.

Consider `CC(C)C[C@H](N)C(=O)O` [Leu], for which the Km – broadly, the concentration of substrate that gives half-maximal velocity – at Bat1ΔN16^WT [1] came out at 3.08 ± 1.42 mM; on Bat1ΔN16^WT [2], 0.285 ± 0.0679 mM.

B1: Bat2^WT (Saccharomyces cerevisiae S288C; G316S) (protein)
chain: MTLAPLDASKVKITTTQHASKPKPNSELVFGKSFTDHMLTAEWTAEKGWGTPEIKPYQNLSLDPSAVVFHYAFELFEGMKAYRTVDNKITMFRPDMNMKRMNKSAQRICLPTFDPEELITLIGKLIQQDKCLVPEGKGYSLYIRPTLIGTTAGLGVSTPDRALLYVICCPVGPYYKTGFKAVRLEATDYATRAWPGGCGDKKLGANYAPCVLPQLQAASRGYQQNLWLFGPNNNITEVGTMNAFFVFKDSKTGKKELVTAPLDGTILEGVTRDSILNLAKERLEPSEWTISERYFTIGEVTERSKNGELLEAFGSSTAAIVSPIKEIGWKGEQINIPLLPGEQTGPLAKEVAQWINGIQYGETEHGNWSRVVTDLN
notes: N-terminal His-tag (pET53-dest, tag not reported cut); E. coli BL21(DE3); dimer
Consider B1, for which the Km was 3400 ± 1140 µM in “purified protein [3]”; 13300 ± 3440 µM in the series “purified protein [4]”; 3890 ± 1060 µM in the series “purified protein [5]”; 308 ± 134 µM in the series “purified protein [6]”; 681 ± 189 µM in “purified protein [7]”; 1730 ± 826 µM in the series “purified protein [8]”. In addition, the kcat – broadly, the maximal rate divided by the concentration of active sites – was 1.8 s⁻¹ in “purified protein [3]”; 1.4 s⁻¹ in “purified protein [4]”; 1.61 s⁻¹ in the series “purified protein [5]”; 2.01 ± 0.282 s⁻¹ in “purified protein [6]”; 5.42 ± 0.615 s⁻¹ in “purified protein [7]”; 1.79 ± 0.521 s⁻¹ in “purified protein [8]”. Besides, the kcat/Km (in general, the turnover number divided by the Michaelis constant) in “purified protein [3]” came to 529 M⁻¹ s⁻¹; in “purified protein [4]” it was 106 M⁻¹ s⁻¹; in the series “purified protein [5]”, 414 M⁻¹ s⁻¹; in the series “purified protein [6]” it was 6530 M⁻¹ s⁻¹; in “purified protein [7]”, 7960 M⁻¹ s⁻¹; in “purified protein [8]”, 1030 M⁻¹ s⁻¹.

B2: Bat2^WT (Saccharomyces cerevisiae S288C) (protein)
chain: B1 chain with S316G
notes: as for B1
Take B2: the Km in the series “purified protein [3]” was 119 ± 38.9 µM; in the series “purified protein [4]” it was 511 ± 111 µM; in the series “purified protein [5]” it was 189 ± 60 µM; in the series “purified protein [6]”, 150 ± 59.4 µM; in the series “purified protein [7]”, 212 ± 61 µM; in “purified protein [8]” it was 180 ± 44.4 µM. The catalytic constant (kcat) in the series “purified protein [3]” amounted to 2.61 s⁻¹; in the series “purified protein [4]”, 2.71 s⁻¹; in the series “purified protein [5]”, 2.3 s⁻¹; in “purified protein [6]” it was 5.48 ± 1.04 s⁻¹; in the series “purified protein [7]”, 11.6 ± 1.82 s⁻¹; in “purified protein [8]” it was 8.05 ± 1.02 s⁻¹. Also, the kcat/Km worked out at 21900 M⁻¹ s⁻¹ in the series “purified protein [3]”; 5300 M⁻¹ s⁻¹ in “purified protein [4]”; 12200 M⁻¹ s⁻¹ in the series “purified protein [5]”; 36500 M⁻¹ s⁻¹ in the series “purified protein [6]”; 54700 M⁻¹ s⁻¹ in the series “purified protein [7]”; 44700 M⁻¹ s⁻¹ in “purified protein [8]”.

B3: Bat1ΔN16^WT (Saccharomyces cerevisiae S288C) (protein)
chain: T1 sequence (P38891 17-393 G333S) with S317G
notes: first 16 residues (mitochondrial-targeting signal) removed; N-terminal His-tag (pET53-dest, tag not reported cut); E. coli BL21(DE3); dimer
For B3, the Km in “purified protein [3]” came to 220 ± 102 µM; in the series “purified protein [4]” it was 454 ± 123 µM; in the series “purified protein [6]” it was 218 ± 111 µM; in the series “purified protein [7]”, 323 ± 101 µM; in “purified protein [8]”, 298 ± 100 µM. Also, the kcat in the series “purified protein [3]” is 3.74 s⁻¹; in the series “purified protein [4]” it was 3.37 s⁻¹; in the series “purified protein [6]”, 4.73 ± 1.29 s⁻¹; in “purified protein [7]”, 15.4 ± 2.92 s⁻¹; in “purified protein [8]”, 9.55 ± 1.92 s⁻¹. Moreover, the kcat/Km is 17000 M⁻¹ s⁻¹ in “purified protein [3]”; 7420 M⁻¹ s⁻¹ in the series “purified protein [4]”; 21700 M⁻¹ s⁻¹ in the series “purified protein [6]”; 47700 M⁻¹ s⁻¹ in “purified protein [7]”; 32100 M⁻¹ s⁻¹ in the series “purified protein [8]”.

B4: Bat1ΔN16^WT (Saccharomyces cerevisiae S288C; G333S) (protein)
chain: T1 sequence (P38891 17-393 G333S)
notes: as for B3
For B4, in “purified protein [7]”, the Km was determined as 1570 ± 505 µM, the kcat amounted to 4.95 ± 0.945 s⁻¹ and the catalytic efficiency (kcat/Km) stood at 3150 M⁻¹ s⁻¹.
